Results taken from patent publication US20150183867A1 (AbbVie / Abbott, published 2015).
One block for each binder: values may come before it.

Assays:
Aβ1-42 [1] = target: T1, Aβ1-42 (UniProt P05067 672-713); assay: Aβ 1-42 ELISA, peptide on plate; parent antibody
T1 construct: domain: Aβ1-42; Aβ 1-42 is a part of it; also called A beta
Protocol: (§1) ELISA assays were performed to screen for antibodies that bind a desired target antigen as follows. Maxisorb NUNC Immuno plates were coated with 100 μL/well of 1 μg/ml of Aβ1-42 diluted in coating buffer overnight at 6° C. Plates were washed three times with PBS containing 0.02% Tween 20. Blocking solution was prepared by dissolving the blocking reagent for ELISA (Roche) in 100 mL water and then diluted further 1:10 prior to use. Plates were blocked by the addition of 265 μL/well blocking solution for 2 hours at room temperature. Plates were washed three times after blocking with PBS containing 0.02% Tween 20.
(§2) Antibody or DVD-Igs were diluted to 100 ng/μL in PBST+0.5% BSA and serially diluted 1:3. One hundred microliters of antibody or DVD-Ig preparations was added to the plate and incubated for 2 hour at room temperature. Wells were washed three times with PBS containing 0.02% Tween 20.
(§3) One hundred microliters of TMB solution was added to each well and incubated for 10 minutes. TMB solution was prepared by mixing 20 mL 100 mM natrium-acetate pH4.9 with 200 μL TMB solution (Roche #92817060) and 29.5 μL 3% H₂O₂. The reaction was stopped by the addition of 50 μL 1N sulphuric acid. Plates were read spectrophotometrically at a wavelength of 450 nm.

IGF-I [2] = target: T2, IGF-I (UniProt P05019 49-118); assay: direct bind ELISA, antigen on plate; parent antibody; first of the two numbers, IGF1
T2 construct: Bought reagent; also called IGF1; IGF-1
Protocol: (§4) Enzyme Linked Immunosorbent Assays to screen for antibodies that bind a desired target antigen were performed as follows. High bind ELISA plates (Corning Costar #3369, Acton, Mass.) were coated with 100 μL/well of 10 μg/ml of desired target antigen (R&D Systems, Minneapolis, Minn.) or desired target antigen extra-cellular domain/FC fusion protein (R&D Systems, Minneapolis, Minn.) or monoclonal mouse anti-polyHistidine antibody (R&D Systems # MAB050, Minneapolis, Minn.) in phosphate buffered saline (10×PBS, Abbott Bioresearch Center, Media Prep# MPS-073, Worcester, Mass.) overnight at 4° C. Plates were washed four times with PBS containing 0.02% Tween 20. Plates were blocked by the addition of 300 μL/well blocking solution (non-fat dry milk powder, various retail suppliers, diluted to 2% in PBS) for 1/2 hour at room temperature. Plates were washed four times after blocking with PBS containing 0.02% Tween 20.
(§5) One hundred microliters of antibody or DVD-Ig preparations diluted in blocking solution as described above was added to the desired target antigen plate or desired target antigen/FC fusion plate or the anti-polyHistidine antibody/His tagged desired target antigen plate prepared as described above and incubated for 1 hour at room temperature. Wells were washed four times with PBS containing 0.02% Tween 20. […]

IGF-II [3] = target: T3, IGF-II (UniProt P01344 25-91); assay: direct bind ELISA, antigen on plate; parent antibody; second of the two numbers, IGF2
T3 construct: Bought reagent; also called IGF2; IGF-2
Protocol: as §4, §5

Aβ1-42 [4] = target: T1, Aβ1-42; assay: Aβ 1-42 ELISA, peptide on plate; N-terminal VD
Protocol: as §1, §2, §3

Aβ 20-42 globulomer [5] = target: T4, Aβ 20-42 globulomer (UniProt P05067 691-713); assay: Aβ 20-42 globulomer ELISA, antigen on plate; C-terminal VD
T4 construct: domain: Aβ 20-42 globulomer
T4 peptide (looked up): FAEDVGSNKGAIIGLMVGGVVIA
Protocol: (§6) ELISA assays were performed to screen for antibodies that bind a desired target antigen as follows. Aβ 20-42 globulomer and PBS at 37° C. was pre-warmed for 1 minute. High bind ELISA plates (Corning Costar #3369, Acton, Mass.) were coated with 100 μL/well of 41 µg/ml of Aβ 20-42 globulomer diluted in PBS overnight at 4° C. Plates were blocked with 320 μL/well of 100% superblock PBS buffer (Thermo Scientific, #37515) and incubated for 45 minutes at room temperature. Plates were washed three times after blocking with PBS containing 0.02% Tween 20.
(§7) Antibody or DVD-Igs were diluted to 2000 ng/mL, 1000 ng/mL, 200 ng/mL, 40 ng/mL, 8 ng/mL, 1.6 ng/mL and 0.32 ng/mL in 10% superblock in PBS. One hundred microliters of antibody or DVD-Ig preparations was added to the plate in triplicate and incubated for 2 hours at room temperature. Wells were washed five times with PBS containing 0.02% Tween 20.
(§8) One hundred microliters of TMB solution (Invitrogen-Zymed; #00-2023) was added to each well and incubated for 5 minutes. The reaction was stopped by the addition of 100 μL 2N sulphuric acid. Plates were read spectrophotometrically at a wavelength of 450 nm.

Recombinant Human IL-1β [6] = target: T5, Recombinant Human IL-1β (human, UniProt P01584 117-269); assay: direct bind ELISA, antigen on plate; C-terminal VD
T5 construct: Bought reagent; also called IL-1B
Protocol: as §4
(§9) One hundred microliters of antibody or DVD-Ig preparations diluted in blocking solution as described above was added to the desired target antigen plate or desired target antigen/FC fusion plate or the anti-polyHistidine antibody/His tagged desired target antigen plate prepared as described above and incubated for 1 hour at room temperature. Wells were washed four times with PBS containing 0.02% Tween 20.
(§10) One hundred microliters of 10 ng/mL goat anti-human IgG-FC specific HRP conjugated antibody (Southern Biotech #2040-05, Birmingham, Ala.) was added to each well of the desired target antigen plate or anti-polyHistidine antibody/Histidine tagged desired target antigen plate. Alternatively, one hundred microliters of 10 ng/mL goat anti-human IgG-kappa light chain specific HRP conjugated antibody (Southern Biotech #2060-05 Birmingham, Ala.) was added to each well of the desired target antigen/FC fusion plate and incubated for 1 hour at room temperature. Plates were washed 4 times with PBS containing 0.02% Tween 20.

Recombinant Human IL-1β [7] = target: T5, Recombinant Human IL-1β; assay: cell-based or functional assay
Aβ1-42 [8] = target: T1, Aβ1-42; assay: Aβ 1-42 ELISA, peptide on plate; C-terminal VD
Protocol: as §1, §2, §3

Aβ 20-42 globulomer [9] = target: T4, Aβ 20-42 globulomer; assay: Aβ 20-42 globulomer ELISA, antigen on plate; N-terminal VD
Protocol: as §6, §7, §8

Recombinant Human IL-1β [10] = target: T5, Recombinant Human IL-1β; assay: direct bind ELISA, antigen on plate; N-terminal VD
Protocol: as §4, §9, §10

Aβ 20-42 globulomer [11] = target: T4, Aβ 20-42 globulomer; assay: Aβ 20-42 globulomer ELISA, antigen on plate; parent antibody
Protocol: as §6, §7, §8

IGF-II [12] = target: T3, IGF-II; assay: direct bind ELISA, antigen on plate; C-terminal VD
Protocol: as §4, §9, §10

IGF-I [13] = target: T2, IGF-I; assay: direct bind ELISA, antigen on plate; C-terminal VD
Protocol: as §4, §9, §10

EC50 (Aβ1-42 [4]): 0.017 nM
EC50 (Aβ 20-42 globulomer [5]): 0.178 nM
B3: DVD202 (bispecific antibody, human IgG1, kappa)
heavy: not shown
light: DVVMTQSPLSLPVTPGEPASISCKSSQSLLDSDGKTYLNWLLQKPGQSPQRLIYLVSKLDSGVPDRFSGSGSGTDFTLKISRVEAEDVGVYYCWQGTHFPRTFGQGTKVEIKRTVAAPDVLVTQSPLSLPVTPGEPASISCRSTQTLVHRNGDTYLEWYLQKPGQSPQSLIYKVSNRFSGVPDRFSGSGSGTDFTLKISRVEAEDVGVYYCFQGSHVPYTFGQGTKLEIKRTVAAPSVFIFPPSDEQLKSGTASVVCLLNNFYPREAKVQWKVDNALQSGNSQESVTEQDSKDSTYSLSSTLTLSKADYEKHKVYACEVTHQGLSSPVTKSFNRGEC
notes: DVD-Ig; also called VD202H/VD202L

EC50 (Aβ1-42 [4]): 0.016 nM
EC50 (Recombinant Human IL-1β [6]): 3940 nM
C-Terminal VD IL-1β Neutralization Assay EC50 (Recombinant Human IL-1β [7]): 12.7 nM
B4: DVD225 (bispecific antibody, human IgG1, kappa)
heavy: not shown
light: DVVMTQSPLSLPVTPGEPASISCKSSQSLLDSDGKTYLNWLLQKPGQSPQRLIYLVSKLDSGVPDRFSGSGSGTDFTLKISRVEAEDVGVYYCWQGTHFPRTFGQGTKVEIKRTVAAPEIVLTQSPDFQSVTPKEKVTITCRASQSIGSSLHWYQQKPDQSPKLLIKYASQSFSGVPSRFSGSGSGTDFTLTINSLEAEDAAAYYCHQSSSLPFTFGPGTKVDIKRTVAAPSVFIFPPSDEQLKSGTASVVCLLNNFYPREAKVQWKVDNALQSGNSQESVTEQDSKDSTYSLSSTLTLSKADYEKHKVYACEVTHQGLSSPVTKSFNRGEC
notes: DVD-Ig; also called VD225H/VD225L

EC50 (Recombinant Human IL-1β [10]): 9.52 nM
EC50 (Aβ1-42 [8]): 0.045 nM
N-Terminal VD IL-1β Neutralization Assay EC50 (Recombinant Human IL-1β [7]): 0.028 nM
B6: DVD226 (bispecific antibody, human IgG1, kappa)
heavy: not shown
light: EIVLTQSPDFQSVTPKEKVTITCRASQSIGSSLHWYQQKPDQSPKLLIKYASQSFSGVPSRFSGSGSGTDFTLTINSLEAEDAAAYYCHQSSSLPFTFGPGTKVDIKRTVAAPDVVMTQSPLSLPVTPGEPASISCKSSQSLLDSDGKTYLNWLLQKPGQSPQRLIYLVSKLDSGVPDRFSGSGSGTDFTLKISRVEAEDVGVYYCWQGTHFPRTFGQGTKVEIKRTVAAPSVFIFPPSDEQLKSGTASVVCLLNNFYPREAKVQWKVDNALQSGNSQESVTEQDSKDSTYSLSSTLTLSKADYEKHKVYACEVTHQGLSSPVTKSFNRGEC
notes: DVD-Ig; also called VD226H/VD226L

EC50 (Aβ1-42 [4]): 0.016 nM
EC50 (IGF-II [12]): 131 nM
EC50 (IGF-I [13]): 210 nM
B8: DVD229 (bispecific antibody, human IgG1, lambda)
heavy: not shown
light: DVVMTQSPLSLPVTPGEPASISCKSSQSLLDSDGKTYLNWLLQKPGQSPQRLIYLVSKLDSGVPDRFSGSGSGTDFTLKISRVEAEDVGVYYCWQGTHFPRTFGQGTKVEIKRTVAAPQSVLTQPPSVSAAPGQKVTISCSGSSSNIENNHVSWYQQLPGTAPKLLIYDNNKRPSGIPDRFSGSKSGTSATLGITGLQTGDEADYYCETWDTSLSAGRVFGGGTKLTVLGQPKAAPSVTLFPPSSEELQANKATLVCLISDFYPGAVTVAWKADSSPVKAGVETTTPSKQSNNKYAASSYLSLTPEQWKSHRSYSCQVTHEGSTVEKTVAPTECS
notes: DVD-Ig; also called VD229H/VD229L

The remaining lines, values behind:

B1: AB043 (antibody, human IgG1, kappa, V domains shown)
VH: EVQLLESGGGLVQPGGSLRLSCAASGFTFSNYGMSWVRQAPGKGLEWVASIRSGGGRTYYSDNVKGRFTISRDNSKNTLYLQMNSLRAEDTAVYYCVRYDHYSGSSDYWGQGTLVTVSS
VL: DVVMTQSPLSLPVTPGEPASISCKSSQSLLDSDGKTYLNWLLQKPGQSPQRLIYLVSKLDSGVPDRFSGSGSGTDFTLKISRVEAEDVGVYYCWQGTHFPRTFGQGTKVEIKR
EC50 (Aβ1-42 [1]): 0.012 nM

B2: AB010 (antibody, human IgG1, lambda, V domains shown)
VH: QVQLVQSGAEVKKPGASVKVSCKASGYTFTSYDINWVRQATGQGLEWMGWMNPNSGNTGYAQKFQGRVTMTRNTSISTAYMELSSLRSEDTAVYYCARDPYYYYYGMDVWGQGTTVTVSS
VL: QSVLTQPPSVSAAPGQKVTISCSGSSSNIENNHVSWYQQLPGTAPKLLIYDNNKRPSGIPDRFSGSKSGTSATLGITGLQTGDEADYYCETWDTSLSAGRVFGGGTKLTVLG
notes: also called IGF1,2 parent antibody
EC50 (IGF-I [2]): 10.1 nM
EC50 (IGF-II [3]): 2.93 nM

B5: DVD201 (bispecific antibody, human IgG1, kappa)
heavy: not shown
light: DVLVTQSPLSLPVTPGEPASISCRSTQTLVHRNGDTYLEWYLQKPGQSPQSLIYKVSNRFSGVPDRFSGSGSGTDFTLKISRVEAEDVGVYYCFQGSHVPYTFGQGTKLEIKRTVAAPDVVMTQSPLSLPVTPGEPASISCKSSQSLLDSDGKTYLNWLLQKPGQSPQRLIYLVSKLDSGVPDRFSGSGSGTDFTLKISRVEAEDVGVYYCWQGTHFPRTFGQGTKVEIKRTVAAPSVFIFPPSDEQLKSGTASVVCLLNNFYPREAKVQWKVDNALQSGNSQESVTEQDSKDSTYSLSSTLTLSKADYEKHKVYACEVTHQGLSSPVTKSFNRGEC
notes: DVD-Ig; also called VD201H/VD201L
EC50 (Aβ1-42 [8]): 0.024 nM
EC50 (Aβ 20-42 globulomer [9]): 0.397 nM

B7: AB044 (antibody, human IgG1, lambda, V domains shown)
VH: EVKLVESGGGLVKPGGSLRLSCAASGFTFSSYAMSWVRQAPGKGLEWVASIHNRGTIFYLDSVKGRFTISRDNVRNTLYLQMNSLRAEDTAVYYCTRGRSNSYAMDYWGQGTSVTVSS
VL: DVLVTQSPLSLPVTPGEPASISCRSTQTLVHRNGDTYLEWYLQKPGQSPQSLIYKVSNRFSGVPDRFSGSGSGTDFTLKISRVEAEDVGVYYCFQGSHVPYTFGQGTKLEIKR
notes: the light constant region is therefore doubtful
EC50 (Aβ 20-42 globulomer [11]): 0.319 nM
